Measured values taken from patent publication US20240167070.

Key:
model peptide 2, …(OH)HV = biological target: T1, model peptide 2, …(OH)HV
T1 chain: AIYRRGRLYRRXHV

[1] = biological target: T2, model peptide 1, AIYRRGRLYRRNHV
T2 chain: AIYRRGRLYRRNHV

[2] = biological target: T3, model peptide 3, AIYRRGRLYRRDHV
T3 chain: AIYRRGRLYRRDHV

model peptide 5, …(OH)SL = biological target: T4, model peptide 5, …(OH)SL
T4 chain: AIYRRGRLYRRXSL

[3] = biological target: T5, model peptide 4, AIYRRGRLYRRNSL
T5 chain: AIYRRGRLYRRNSL

[4] = biological target: T6, model peptide 6, AIYRRGRLYRRDSL
T6 chain: AIYRRGRLYRRDSL

B1: butelase-1 (protein)
chain: VEGTRWAVLVAGSKGYVNYRHQADVCHAYQILKKGGLKDENIIVFMYDDIAYNESNPHPGVIINHPYGSDVYKGVPKDYVGEDINPPNFYAVLLANKSALTGTGSGKVLDSGPNDHVFIYYTDHGGAGVLGMPSKPYIAASDLNDVLKKKHASGTYKSIVFYVESCESGSMFDGLLPEDHNIYVMGASDTGESSWVTYCPLQHPSPPPEYDVCVGDLFSVAWLEDCDVHNLQTETFQQQYEVVKNKTIVALIEDGTHVVQYGDVGLSKQTLFVYMGTDPAN
Km (model peptide 2, …(OH)HV): 98.8 µM | Km [1]: 67.5 µM | Km [2]: 630 µM

B2: VyPAL2 (protein)
chain: DSIGTRWAVLIAGSKGYHNYRHQADVCHMYQILRKGGVKDENIIVFMYDDIAYNESNPFPGIIINKPGGENVYKGVPKDYTGEDINNVNFLAAILGNKSAIIGGSGKVLDTSPNDHIFIYYADHGAPGKIGMPSKPYLYADDLVDTLKQKAATGTYKSMVFYVEACNAGSMFEGLLPEGTNIYAMAASNSTEGSWITYCPGTPDFPPEFDVCLGDLWSITFLEDCDAHNLRTETVHQQFELVKKKIAYASTVSQYGDIPISKDSLSVYM
Km (model peptide 5, …(OH)SL): 120 µM | Km [3]: 42.5 µM | Km [4]: 2070 µM
